Test results published in US12565506B2, “Nitrogen-containing macrocyclic conjugates as radiopharmaceuticals” (Clarity Pharmaceuticals Ltd., priority 2008, dated 2026).

Assay: Serum stability of 64Cu-labelled Sar-peptides by radio-HPLC
Assay type: in vitro ADME
Conditions: human male AB serum, 37° C.
Description: Human male AB serum (200 μL) was added to a solution of [^64CuL^1-Tyr^3-octreotate]^2+ (200 μL). This solution was incubated in a water bath at 37° C. At time points of 1 hr, 4 hr and 20 hr an aliquot of this serum solution (100 μL) was removed for radio-HPLC analysis: acetonitrile (200 μL) was added to the serum aliquot to precipitate serum proteins. This mixture was filtered and the acetonitrile evaporated under a stream of argon gas. The final volume was <100 μL. The solution was frozen at −70° C. until injection onto the HPLC column. 1 hr: Retention time 12.716 min, >95% radiochemical yield; 4 hr: Retention time 12.725 min, >95% radiochemical yield; 20 hr: Retention time 12.800 min, >95% radiochemical yield.
A single time point serum stability study for [^64CuL^1-Lys3-bombesin]^2+ was conducted in the same way as studies for [^64CuL^1-Tyr^3-octreotate]^2+. An aliquot of [^64CuL^1-Lys3-bombesin]^2+ (200 μL) was added to human male AB serum and incubated at 37° C. After 2 hr, the sample was subjected to the same treatment as described above and injected onto the HPLC column. 2 hr: Retention time 12.828 min, >95% radiochemical yield.

For `CSCC[C@H](NC(=O)[C@H](CC(C)C)NC(=O)[C@H](Cc1c[nH]cn1)NC(=O)CNC(=O)[C@@H](NC(=O)[C@H](C)NC(=O)[C@H](Cc1c[nH]c2ccccc12)NC(=O)[C@H](CCC(N)=O)NC(=O)[C@H](CC(N)=O)NC(=O)CNC(=O)[C@H](CC(C)C)NC(=O)[C@H](CCCCNC(=O)CCCC(=O)NC12CNCCNCC(N)(CNCCNC1)CNCCNC2)NC(=O)[C@H](CCC(N)=O)NC(=O)[C@@H]1CCC(=O)N1)C(C)C)C(N)=O` (64Cu complex, metal not drawn) [[^64CuL^1-Lys3-bombesin]^2+], the “radiochemical yield (intact complex by radio-HPLC) after incubation in serum” value (shortened to “radiochemical yield”) (2 hr) was greater than 95%.

In the case of `CC(O)[C@H](NC(=O)C1CSSC[C@H](NC(=O)[C@@H](Cc2ccccc2)NC(=O)CCCC(=O)N[C@]23CNCCNC[C@]4(N)C[N]5CC[N](C2)[Cu]52([CH3])([CH3])[N](CC[N]2C3)C4)C(=O)N[C@@H](Cc2ccc(O)cc2)C(=O)N[C@H](Cc2c[nH]c3ccccc23)C(=O)N[C@@H](CCCCN)C(=O)N[C@@H](C(C)O)C(=O)N1)C(=O)O` (stereo partly shown) [[^64CuL^1-Tyr^3-octreotate]^2+], the “radiochemical yield” value (1 hr) is reported as greater than 95%, the “radiochemical yield” value (4 hr) is reported as greater than 95% and the “radiochemical yield” value (20 hr) is reported as greater than 95%.
